Reference: patent US20130259878A1 (OXFORD BIOTHERAPEUTICS, published 2013)
Residue numbers refer to the chain shown, from its start.

How the values were obtained:
[1] = target: T1, CDH17 human full length Flag tagged antigen, transfected into HEK293 cells (human, UniProt Q12864 23-832); assay: flow cytometry on HEK293 cells transiently transfected with Flag tagged human CDH17; panel 'CDH17 Human Flag Tag analyzed with CDH17_A4_4K'
T1 construct: The Flag tag may sit at either end; also called Flag tagged Human CDH17; human CDH17; not shown: Flag tag
T1 sequence: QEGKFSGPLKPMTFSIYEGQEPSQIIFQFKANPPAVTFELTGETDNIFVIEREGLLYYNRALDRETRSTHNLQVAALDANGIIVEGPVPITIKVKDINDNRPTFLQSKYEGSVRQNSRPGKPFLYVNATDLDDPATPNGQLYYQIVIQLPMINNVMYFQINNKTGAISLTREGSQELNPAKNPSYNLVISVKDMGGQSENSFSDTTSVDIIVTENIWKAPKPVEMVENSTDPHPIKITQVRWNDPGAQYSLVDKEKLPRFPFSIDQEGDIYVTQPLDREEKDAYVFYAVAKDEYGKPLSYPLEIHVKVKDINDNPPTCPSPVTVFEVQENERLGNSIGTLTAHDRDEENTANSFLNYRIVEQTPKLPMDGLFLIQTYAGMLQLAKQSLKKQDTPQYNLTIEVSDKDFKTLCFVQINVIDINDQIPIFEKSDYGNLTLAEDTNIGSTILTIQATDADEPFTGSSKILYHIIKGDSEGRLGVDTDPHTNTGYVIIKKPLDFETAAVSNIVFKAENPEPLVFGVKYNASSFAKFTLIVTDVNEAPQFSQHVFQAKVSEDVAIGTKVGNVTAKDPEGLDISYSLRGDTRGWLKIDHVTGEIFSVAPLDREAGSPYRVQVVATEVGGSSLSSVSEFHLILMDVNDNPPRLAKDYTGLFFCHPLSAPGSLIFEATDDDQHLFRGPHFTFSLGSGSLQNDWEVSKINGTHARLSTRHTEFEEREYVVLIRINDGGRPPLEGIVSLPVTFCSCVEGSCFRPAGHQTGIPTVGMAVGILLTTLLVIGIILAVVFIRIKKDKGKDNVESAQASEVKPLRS
Procedure: (§1) The humanized monoclonal antibodies, CDH17_A4_{—}4K and CDH17_A4_{—}4R were incubated with cells on ice for 1 hour and then washed twice with cold FACS buffer and re-suspended in 100 ul FACS buffer per well. A secondary antibody was added at 1 ug/ml along with goat anti-mouse H+L PE (Southern Biotech) for Anti-flag and mouse isotype control and goat anti-human H+L PE (Southern Biotech) for human isotype control. The plate was then incubated for 1 hour after which was washed three times with FACS buffer and re-suspended 150 ul FACS buffer per well. 50 ul of 4% paraformaldehyde was then added to fix the cells before storing the plate overnight at 4 degrees C. The sample were then run on Guava EasyCyte Flow Cytometer HT plus and the data analyzed using the Guava Cytosoft software suite.

[2] = target: T1, CDH17 human full length Flag tagged …; assay: flow cytometry on HEK293 cells transiently transfected with Flag tagged human CDH17; panel 'CDH17 Human Flag Tag analyzed with CDH17_A4_4R'
Procedure: as §1

[3] = target: T2, human Cadherin-17 (CDH17), cell-surface, endogenous on human cancer cells (human, UniProt Q12864 23-832); assay: flow cytometry on LoVo cells, antibody titration
T2 construct: Endogenous CDH17 on LoVo, LS174T and SNU-1 cells and in human tumor tissue sections; also called liver-intestine cadherin; LI-cadherin
T2 sequence: T1 sequence

B1: humanized CDH17_A4-4K monoclonal antibody (antibody, V domains shown)
VH: QVQLVQSGAEVKKPGASVKVSCKASGYTLTDHTIHWMRQAPGQRLEWIGYIYPRDGITGYNEKFKGKATLTADTSASTAYMELSSLRSEDTAVYYCARWGYSYRNYAYYYDYWGQGTLVTVSS
VL: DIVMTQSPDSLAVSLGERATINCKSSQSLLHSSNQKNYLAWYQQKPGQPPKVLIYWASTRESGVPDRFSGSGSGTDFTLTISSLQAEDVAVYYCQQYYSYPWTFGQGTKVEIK
notes: It was detected with an anti-human IgG secondary in the HumZAP assay
B1 showed an EC50 [1] of 0.14 nM.

B2: humanized CDH17_A4-4R monoclonal antibody (antibody, V domains shown)
VH: B1 VH with K63R, K65R
VL: DIVMTQSPDSLAVSLGERATINCRSSQSLLHSSNQRNYLAWYQQKPGQPPKVLIYWASTRESGVPDRFSGSGSGTDFTLTISSLQAEDVAVYYCQQYYSYPWTFGQGTKVEIK
notes: as for B1
For B2, the EC50 [2] was 0.13 nM.

B3: CDH17_A4 monoclonal antibody (Fab, V domains shown)
VH: EVQLQQSVAELVKPGASVKMSCKVSGYTLTDHTIHWMKQRPEQGLEWIGYIYPRDGITGYNEKFKGKATLTADTSSSTAYMQLNSLTSEDSAVYFCARWGYSYRNYAYYYDYWGQGTTLTVSS
VL: DIVMSQSPSSLAVSVGEKVTMSCKSSQSLLHSSNQKNYLAWYQQKPGQSPKVLIYWASTRESGVPDRFTGSGSGTDFTLTITSVKSEDLAVYYCQQYYSYPWTFGGGTRLEIK
notes: also called CHD17_A4
B3: binds [3].
